tested on: Escherichia coli TOP10; test: shrunken log2 fold change of peptide-encoding DNA abundance (4.5 h post-induction vs induction); higher = less antimicrobial activity (less host growth inhibition); details: time post-induction: 4.5 h; library: site-saturation at positions 5, 18, 19, 20
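Also: peptides expressed intracellularly from a pBAD plasmid library in pooled LB shake-flask culture, induced with 0.3% L-arabinose, DNA abundance read by NGS, three biological replicates, DESeq2 with apeglm shrinkage.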

RRIRMRPPRLPRPRPRPSSRPRP and RRIRDRPPRLPRPRPRPTPEPRP are within 0.2 log units of each other in “shrunken log2 fold change” value: 0.208 for the first, 0.152 for the second.

First: RRIRMRPPRLPRPRPRPKVMPRP
Second: RRIRGRPPRLPRPRPRPYVIPRP
The “shrunken log2 fold change” value of the first is higher: 0.201 for the first, -0.0899 for the second.

RRIRWRPPRLPRPRPRPTIRPRP and RRIRCRPPRLPRPRPRPMYYPRP are within 0.2 log units of each other in “shrunken log2 fold change” value: -0.343 for the first, -0.472 for the second.

Compared with RRIRVRPPRLPRPRPRPIYRPRP, RRIRPRPPRLPRPRPRPFIRPRP is higher in “shrunken log2 fold change” value: -0.491 for the first, 0.00477 for the second.

RRIRWRPPRLPRPRPRPMENPRP and RRIRCRPPRLPRPRPRPCDWPRP are within 0.2 log units of each other in “shrunken log2 fold change” value: 0.0913 for the first, 0.116 for the second.

Compared with RRIRWRPPRLPRPRPRPCCMPRP, RRIRDRPPRLPRPRPRPGRPPRP is higher in “shrunken log2 fold change” value: -0.196 for the first, 0.136 for the second.

Compared with RRIRERPPRLPRPRPRPQEHPRP, RRIRLRPPRLPRPRPRPCARPRP is higher in “shrunken log2 fold change” value: -0.179 for the first, 0.0322 for the second.

Going from RRIRLRPPRLPRPRPRPKETPRP to RRIRERPPRLPRPRPRPVNMPRP, the “shrunken log2 fold change” value falls from 0.137 to -0.139.

Going from RRIRYRPPRLPRPRPRPFRFPRP to RRIRIRPPRLPRPRPRPQLFPRP, the “shrunken log2 fold change” value rises from -0.83 to 0.667.

RRIRERPPRLPRPRPRPDLQPRP and RRIRMRPPRLPRPRPRPSRLPRP are within 0.2 log units of each other in “shrunken log2 fold change” value: 0.00923 for the first, 0.19 for the second.

Going from RRIRKRPPRLPRPRPRPPHYPRP to RRIRMRPPRLPRPRPRPDIMPRP, the “shrunken log2 fold change” value rises from 0.176 to 2.19.

Going from RRIRDRPPRLPRPRPRPSGNPRP to RRIRRRPPRLPRPRPRPIVHPRP, the “shrunken log2 fold change” value falls from 0.499 to -0.0757.

Going from RRIRDRPPRLPRPRPRPNNEPRP to RRIRDRPPRLPRPRPRPGEPPRP, the “shrunken log2 fold change” value rises from -0.526 to 0.613.

First: RRIRGRPPRLPRPRPRPHGTPRP
Second: RRIRWRPPRLPRPRPRPKLAPRP
The “shrunken log2 fold change” value of the first is lower: 0.331 for the first, 1.03 for the second.

RRIRCRPPRLPRPRPRPIVCPRP and RRIRTRPPRLPRPRPRPYFWPRP are within 0.2 log units of each other in “shrunken log2 fold change” value: -0.272 for the first, -0.299 for the second.

Going from RRIRVRPPRLPRPRPRPCHQPRP to RRIRCRPPRLPRPRPRPFWNPRP, the “shrunken log2 fold change” value rises from -0.483 to -0.278.

First: RRIRQRPPRLPRPRPRPVLYPRP
Second: RRIRARPPRLPRPRPRPSKYPRP
The “shrunken log2 fold change” value of the first is higher: 0.0138 for the first, -0.464 for the second.

First: RRIRCRPPRLPRPRPRPWHRPRP
Second: RRIRVRPPRLPRPRPRPEPEPRP
The “shrunken log2 fold change” value of the first is lower: 0.0363 for the first, 0.515 for the second.

Compared with RRIRTRPPRLPRPRPRPHTGPRP, RRIRGRPPRLPRPRPRPAKIPRP is higher in “shrunken log2 fold change” value: -0.34 for the first, 0.226 for the second.

Compared with RRIRRRPPRLPRPRPRPWNWPRP, RRIRWRPPRLPRPRPRPMKWPRP is lower in “shrunken log2 fold change” value: 2.98 for the first, 0.0452 for the second.

First: RRIRARPPRLPRPRPRPHPTPRP
Second: RRIRVRPPRLPRPRPRPGIYPRP
The “shrunken log2 fold change” value of the first is higher: 0.648 for the first, -0.623 for the second.

Going from RRIRARPPRLPRPRPRPYLSPRP to RRIRSRPPRLPRPRPRPTTIPRP, the “shrunken log2 fold change” value rises from -0.451 to 0.127.

RRIRTRPPRLPRPRPRPVWEPRP and RRIRVRPPRLPRPRPRPAWVPRP are within 0.2 log units of each other in “shrunken log2 fold change” value: 0.264 for the first, 0.459 for the second.

Going from RRIRCRPPRLPRPRPRPYRIPRP to RRIRGRPPRLPRPRPRPCVLPRP, the “shrunken log2 fold change” value rises from -0.263 to 0.158.

Going from RRIRLRPPRLPRPRPRPKWFPRP to RRIRRRPPRLPRPRPRPLTIPRP, the “shrunken log2 fold change” value falls from 0.154 to -0.133.

First: RRIRSRPPRLPRPRPRPDQFPRP
Second: RRIRMRPPRLPRPRPRPLAPPRP
The “shrunken log2 fold change” value of the first is lower: -0.167 for the first, 0.735 for the second.

Compared with RRIRCRPPRLPRPRPRPGQTPRP, RRIRFRPPRLPRPRPRPTAAPRP is higher in “shrunken log2 fold change” value: 0.0466 for the first, 0.569 for the second.

First: RRIRVRPPRLPRPRPRPVMAPRP
Second: RRIRVRPPRLPRPRPRPSQYPRP
The “shrunken log2 fold change” value of the first is higher: 0.0266 for the first, -0.389 for the second.

First: RRIRERPPRLPRPRPRPEEGPRP
Second: RRIRCRPPRLPRPRPRPLHLPRP
The “shrunken log2 fold change” value of the first is higher: -0.007 for the first, -0.302 for the second.

RRIRPRPPRLPRPRPRPYMYPRP and RRIRLRPPRLPRPRPRPWFLPRP are within 0.2 log units of each other in “shrunken log2 fold change” value: -0.634 for the first, -0.449 for the second.

Going from RRIRRRPPRLPRPRPRPHKAPRP to RRIRCRPPRLPRPRPRPTKFPRP, the “shrunken log2 fold change” value falls from 0.434 to -0.305.

Compared with RRIRQRPPRLPRPRPRPKVAPRP, RRIRKRPPRLPRPRPRPYYPPRP is lower in “shrunken log2 fold change” value: -0.00277 for the first, -0.227 for the second.

RRIRNRPPRLPRPRPRPWRAPRP and RRIRDRPPRLPRPRPRPDKTPRP are within 0.2 log units of each other in “shrunken log2 fold change” value: 0.0962 for the first, 0.0138 for the second.

First: RRIRGRPPRLPRPRPRPMAEPRP
Second: RRIRTRPPRLPRPRPRPAWWPRP
The “shrunken log2 fold change” value of the first is higher: 1.73 for the first, 0.615 for the second.

Compared with RRIRYRPPRLPRPRPRPISVPRP, RRIRERPPRLPRPRPRPMTKPRP is higher in “shrunken log2 fold change” value: -0.534 for the first, -0.0224 for the second.

Compared with RRIRSRPPRLPRPRPRPSVEPRP, RRIRIRPPRLPRPRPRPGIFPRP is lower in “shrunken log2 fold change” value: -0.0505 for the first, -0.5 for the second.

RRIRPRPPRLPRPRPRPCFMPRP and RRIRSRPPRLPRPRPRPKIRPRP are within 0.2 log units of each other in “shrunken log2 fold change” value: -0.269 for the first, -0.177 for the second.

Compared with RRIRIRPPRLPRPRPRPEQRPRP, RRIRWRPPRLPRPRPRPKQRPRP is higher in “shrunken log2 fold change” value: -0.0838 for the first, 0.473 for the second.

Compared with RRIRARPPRLPRPRPRPKECPRP, RRIRIRPPRLPRPRPRPCDDPRP is lower in “shrunken log2 fold change” value: 0.0495 for the first, -0.395 for the second.

RRIRTRPPRLPRPRPRPKCTPRP and RRIRTRPPRLPRPRPRPEYFPRP are within 0.2 log units of each other in “shrunken log2 fold change” value: -0.0569 for the first, -0.186 for the second.

RRIRMRPPRLPRPRPRPQSNPRP and RRIRTRPPRLPRPRPRPHGVPRP are within 0.2 log units of each other in “shrunken log2 fold change” value: 0.0557 for the first, -0.00162 for the second.

Going from RRIRVRPPRLPRPRPRPNAKPRP to RRIRLRPPRLPRPRPRPKMVPRP, the “shrunken log2 fold change” value falls from 0.328 to -0.146.

Compared with RRIRHRPPRLPRPRPRPNVNPRP, RRIRKRPPRLPRPRPRPPHTPRP is higher in “shrunken log2 fold change” value: -0.555 for the first, 0.534 for the second.

RRIRHRPPRLPRPRPRPLRIPRP and RRIRDRPPRLPRPRPRPIPSPRP are within 0.2 log units of each other in “shrunken log2 fold change” value: 0.156 for the first, 0.0554 for the second.

Compared with RRIRERPPRLPRPRPRPKYMPRP, RRIRDRPPRLPRPRPRPDKDPRP is lower in “shrunken log2 fold change” value: 0.822 for the first, 0.0428 for the second.

Going from RRIRHRPPRLPRPRPRPMHTPRP to RRIRQRPPRLPRPRPRPYNCPRP, the “shrunken log2 fold change” value falls from 0.0398 to -0.92.

RRIRERPPRLPRPRPRPVTIPRP and RRIRQRPPRLPRPRPRPMSPPRP are within 0.2 log units of each other in “shrunken log2 fold change” value: -0.233 for the first, -0.11 for the second.

First: RRIRMRPPRLPRPRPRPLDGPRP
Second: RRIRFRPPRLPRPRPRPYMPPRP
The “shrunken log2 fold change” value of the first is higher: 0.844 for the first, -1.09 for the second.

RRIRFRPPRLPRPRPRPTGVPRP and RRIRSRPPRLPRPRPRPYREPRP are within 0.2 log units of each other in “shrunken log2 fold change” value: 0.123 for the first, 0.0503 for the second.

Compared with RRIRSRPPRLPRPRPRPHTDPRP, RRIRCRPPRLPRPRPRPRKPPRP is higher in “shrunken log2 fold change” value: -0.216 for the first, 0.218 for the second.

RRIRNRPPRLPRPRPRPYKWPRP and RRIRWRPPRLPRPRPRPPMIPRP are within 0.2 log units of each other in “shrunken log2 fold change” value: -0.233 for the first, -0.103 for the second.

Compared with RRIRLRPPRLPRPRPRPSGKPRP, RRIRLRPPRLPRPRPRPHQNPRP is lower in “shrunken log2 fold change” value: 0.19 for the first, -0.149 for the second.

Going from RRIRLRPPRLPRPRPRPCACPRP to RRIRMRPPRLPRPRPRPHNQPRP, the “shrunken log2 fold change” value rises from -0.385 to 0.177.

RRIRRRPPRLPRPRPRPIWFPRP and RRIRKRPPRLPRPRPRPRPEPRP are within 0.2 log units of each other in “shrunken log2 fold change” value: 0.0342 for the first, 0.162 for the second.

With RRIRTRPPRLPRPRPRPRHYPRP the “shrunken log2 fold change” value was -0.162.
